Experimental data published in US20230133118A1 (ADAGENE, published 2023).

Experiments:
human CD137 = target: T1, human CD137 (human, UniProt Q07011 24-186); test: surface plasmon resonance (SPR); format not described
T1 construct: also called CD137 receptor; 4-1BB

rat CD137 = target: T2, rat CD137 (rat); test: not described; the reference is not named in the sentence (monkey and human CD137 in the sentences before)
T2 construct: It was recombinantly expressed in reporter cells for the NFkB assay; also called rodent CD137 receptors (rat)

mouse CD137 [1] = target: T3, mouse CD137 (mouse, UniProt P20334 24-187, limits assumed); test: as above
T3 construct: It was recombinantly expressed in reporter cells for the NFkB assay; also called rodent CD137 receptors (mouse)
T3 sequence (looked up): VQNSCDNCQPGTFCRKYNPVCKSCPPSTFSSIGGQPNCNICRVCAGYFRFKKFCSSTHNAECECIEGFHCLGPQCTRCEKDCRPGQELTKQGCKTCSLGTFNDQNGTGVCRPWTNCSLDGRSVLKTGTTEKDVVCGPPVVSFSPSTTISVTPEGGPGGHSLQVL

cynomolgus monkey CD137 = cynomolgus monkey CD137 (cynomolgus monkey, UniProt A9YYE7 24-254); test: cell-based or functional assay
mouse CD137 [2] = target: T3, mouse CD137; test: cell-based or functional assay

Chain of cynomolgus monkey CD137 (A9YYE7 entry or part of it): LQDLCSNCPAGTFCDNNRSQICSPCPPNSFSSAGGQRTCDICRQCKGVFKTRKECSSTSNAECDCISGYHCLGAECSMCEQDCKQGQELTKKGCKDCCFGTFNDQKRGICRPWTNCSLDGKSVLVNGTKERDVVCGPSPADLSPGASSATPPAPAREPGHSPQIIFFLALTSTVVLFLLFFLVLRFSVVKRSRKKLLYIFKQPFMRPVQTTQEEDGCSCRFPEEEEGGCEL
T1 sequence (Q07011 24-186 limits assumed): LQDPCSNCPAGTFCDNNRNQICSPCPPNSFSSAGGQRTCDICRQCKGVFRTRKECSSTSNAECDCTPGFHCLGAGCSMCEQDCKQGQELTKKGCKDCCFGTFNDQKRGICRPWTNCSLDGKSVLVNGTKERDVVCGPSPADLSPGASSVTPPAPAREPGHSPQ

B1: ADG106 (antibody, human IgG4 S228P, kappa, V domains shown)
VH: EVQLVESGGGLVQPGGSLRLSCAASGFSLSTGGVGVGWIRQAPGKGLEWLALIDWADDKYYSPSLKSRLTISRDNSKNTLYLQLNSLRAEDTAVYYCARGGSDTVIGDWFAYWGQGTLVTVSS
VL: DIQLTQSPSSLSASVGDRVTITCRASQSIGSYLAWYQQKPGKAPKLLIYDASNLETGVPSRFSGSGSGTDFTLTISSLQPEDFATYYCQQGYYLWTFGQGTKVEIKR
notes: also called anti-CD137 antibody ADG106; fully human agonistic anti-CD137 monoclonal IgG4 antibody
Kd (human CD137): 3.7 nM
fold lower affinity (rat CD137): > 100 fold
fold lower affinity (mouse CD137 [1]): > 100 fold
EC50 (read off the curve) (NFkB reporter, 293T cells expressing monkey CD137) (cynomolgus monkey CD137): ~0.3 µg/mL
EC50 (read off the curve) (NFkB reporter, 293T cells expressing mouse CD137) (mouse CD137 [2]): ~0.4 µg/mL
